Reference: US20250270295A1 (ALBERT LUDWIGS UNIVERSITAET FREIBURG, published 2025)
Positions count from the first letter of the chain named.

B1: gp34mtrp.03 (antibody, V domains shown)
VH: EVQLEESGTVLARPGASVKMSCKASGYTFTSYWMHWVKQRPGQGLEWIGAIYPGNSDTGYNQKFKGKARLTAVTSTSTAYLELSSLTDEDSAVYFCTRLGYGDYWGQGTTLTVSS
VL: DIVLTQTPSSMYASLGERVTITCKASQDINSYLTWFQQKPGKSPKTLIYRANRLVDGVPSRFSGSGSGQDYSLTINSLDYEDMGIYYCLQYDEFPPTFGGGTKLEIK
notes: mouse IgG1 hybridoma mAb; leader in entries; also called anti gp34 clone mtrp.03
B2: gp34mtrp.04 (antibody, V domains shown)
VH: B1 VH with Q3K, E5V, E6Q
VL: B1 VL with L4M
notes: mouse IgG1 hybridoma mAb; leader in entries; also called anti gp34 clone mtrp.04
B3: gp34wt.09 (antibody, V domains shown)
VH: EVQLEQSGPELVKPGASVKMSCKASGYTFTRPYIHWVKQRPGQGLEWIGWIYPGDGITKYNEKFKGKITLTADKSSSAAYMLLSSLTSEDSAIYFCASFTTPVYWGQGTSVTVSS
VL: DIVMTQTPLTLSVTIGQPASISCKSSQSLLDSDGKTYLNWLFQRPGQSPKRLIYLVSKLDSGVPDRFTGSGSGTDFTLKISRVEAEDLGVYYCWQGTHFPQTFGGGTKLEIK
notes: mouse IgG1 hybridoma mAb; leader in entries; also called anti gp34 clone wt.09
B4: gp34wt.12 (antibody, V domains shown)
VH: B3 VH with Q3K, E5Q, Q6E, F29V, P32S, I57S, I68T, A72V, A78T
VL: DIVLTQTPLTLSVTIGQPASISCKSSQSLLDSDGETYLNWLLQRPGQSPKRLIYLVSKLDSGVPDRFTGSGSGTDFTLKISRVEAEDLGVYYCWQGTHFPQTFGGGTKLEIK
notes: mouse IgG1 hybridoma mAb; leader in entries; also called anti gp34 clone wt.12
B5: gp34wt.11 (antibody, V domains shown)
VH: B3 VH with E1Q, Q6E, F29V, P32S, I57S, I68T, A72V, A78T
VL: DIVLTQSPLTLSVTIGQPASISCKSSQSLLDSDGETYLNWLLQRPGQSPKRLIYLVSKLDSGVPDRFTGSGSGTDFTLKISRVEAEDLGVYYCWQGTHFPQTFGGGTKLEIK
notes: mouse IgG1 hybridoma mAb; leader in entries; also called anti gp34 clone wt.11
B6: gp34wt.10 (antibody, V domains shown)
VH: B3 VH with Q3K
VL: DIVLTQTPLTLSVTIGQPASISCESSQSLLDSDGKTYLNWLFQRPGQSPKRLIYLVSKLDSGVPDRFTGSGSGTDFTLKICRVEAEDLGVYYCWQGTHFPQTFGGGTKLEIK
notes: mouse IgG1 hybridoma mAb; leader in entries; also called anti gp34 clone wt.10
B7: gp34mtrp.05 (antibody, V domains shown)
VH: EVKLLQSGPEVKKPGETVKISCKASGYTFTNYGMSWLRQAPGKGLKWMGWINTYTGEPTYADDFKGRFAFSLETSASTAYFQINNLKDEDTTTYFCARRAFGGLDYWGQGTSVTVSS
VL: DIVMTQSPLSLPVSLGDQASISCRSSQSIVYTNGNTYLEWYLQKPGQSPKLLIYKVSNRFSGVPDRFSGSGSGTDFTLKISRVEAEDLGVYYCFQGSHVPWTFGGGTKLEIK
notes: mouse IgG1 hybridoma mAb; leader in entries; also called anti gp34 clone mtrp.05
B8: gp68.03 (antibody, V domains shown)
VH: B7 VH with L5E, Q6E, S116F
VL: DIVLTQTPLSLPVSLGDQASISCRSSQSIVHSNGNTYLEWYLQKPGQSPKVLIYKVSKRFSGVPDRFSGSGSETDFTLKISRVEAEDMGVYYCFQGSHVPLTFGAGTKLELKR
notes: mouse IgG1 hybridoma mAb; leader in entries; VH entry see recheck; also called anti gp68 clone 68.03
B9: gp34mtrp.06 (antibody, V domains shown)
VH: B7 VH with K3Q, D88N
VL: B7 VL with M4L
notes: mouse IgG1 hybridoma mAb; leader in entries; also called anti gp34 clone mtrp.06
B10: gp34wt.13 (antibody, V domains shown)
VH: EVQLVESGPELKKPGETVKISCKASGYAFTNYGMNWVKQTPGKGLKWMGWINTYTGKPTYADDFKGRFAFSLETSASSAYLQINNLKNEDTATYFCARRRGNSFDYWGQGTTLTVSS
VL: DIVLTQSPSSLTVTAGEKVTMSCKSSQSLLNSGNQENCLTWYQQKPGQPPRLLIYWASTRESGVPDRFTGSGSGTDFTLTISSVQAEDLAVYYCQNDYTYPLTFGAGTKLELK
notes: mouse IgG2a hybridoma mAb; leader in entries; also called anti gp34 clone wt.13
B11: gp34wt.14 (antibody, V domains shown)
VH: B10 VH with E1Q, Q3K, V5L, E6Q
VL: B10 VL with L4I
notes: mouse IgG2a hybridoma mAb; leader in entries; also called anti gp34 clone wt.14
B12: gp34wt.15 (antibody, V domains shown)
VH: QVKLQQSGPELVKPGASVKMSCKASGYTFRSYYIHWVKQRPGQGLEWIGWNNPGDGTAKYNEKFKGKTTLTADKSSSTAYMLLSSLTSEDSAIYFCASFNTPDYWGQGTSVTVSS
VL: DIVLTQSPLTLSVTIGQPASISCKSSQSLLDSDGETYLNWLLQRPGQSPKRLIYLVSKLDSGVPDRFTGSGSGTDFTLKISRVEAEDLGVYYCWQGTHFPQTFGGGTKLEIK
notes: mouse IgG1 hybridoma mAb; leader in entries; also called anti gp34 clone wt.15
B13: gp34wt.07 (antibody, V domains shown)
VH: QVKLEESGPELVKTGASVKISCKASGYSFTSYQIYWVKQSHGKSLEWIGHISCYNGATSYNQKFKDKATFTVDTSSSTAYMQFNSLTSEDSAVYFCARYDYAPDYYAMDYWGQGTSVTVSS
VL: DIVLTQTPASLAVSLGQRATISCRASESVDSYGNSFMHWYQQKPGQPPKLLIYLASNLESGVPARFSGSGSRTDFTLTIDPVEAEDAAIYYCQQNNEDPLTFGGGTKLELK
notes: mouse IgG1 hybridoma mAb; leader in entries; also called anti gp34 clone wt.07
B14: gp34wt.08 (antibody, V domains shown)
VH: B13 VH with Q1E, K3Q, E6Q
VL: B13 VL with L4M
notes: mouse IgG1 hybridoma mAb; leader in entries; also called anti gp34 clone wt.08

What was measured:
[1] = target: T1, soluble gp34 ectodomain W65F, V5-His tagged (sgp34mtrp-V5-His) (HCMV strain AD169); assay: ELISA mtrp
T1 construct: signal peptide 1-23 left out; V5 and His tags are in the entry; Forms only monomers and dimers; also called sol gp34mtrp; gp34 1-179 W65F
T1 chain: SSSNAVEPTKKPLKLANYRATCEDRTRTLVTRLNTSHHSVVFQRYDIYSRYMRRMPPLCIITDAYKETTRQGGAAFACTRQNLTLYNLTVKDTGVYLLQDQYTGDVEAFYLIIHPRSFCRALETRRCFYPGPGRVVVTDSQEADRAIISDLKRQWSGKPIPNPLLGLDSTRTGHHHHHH

[2] = target: T2, soluble gp34 wild type ectodomain, V5-His tagged (sgp34wt-V5-His) (HCMV strain AD169); assay: sgp34wt pre-incubated with mAb, ELISA on CRP
T2 construct: Entry holds signal peptide 1-23 (left out), ectodomain, V5 tag and His tag; Forms monomers, dimers and higher oligomers; also called sol gp34 wt; gp34 1-179
T2 chain: T1 chain with F42W
Source text: In addition, binding of sgp34wt to immobilized CRP in absence of any mAb is depicted.

[3] = target: T2, soluble gp34 wild type ectodomain, …; assay: sgp34wt pre-incubated with mAb, ELISA on FcRn
Procedure: Furthermore, the gp34wt and FcRn interaction was investigated whereby various anti-gp34 mAbs were analyzed and their potential to block this interaction was identified. Experiments were performed as described before for IgG-blocking ELISA, but this time using immobilized FcRn as a novel gp34-ligand.
In addition, binding of sgp34wt to immobilized FcRn in absence of any mAb is depicted.

[4] = target: T2, soluble gp34 wild type ectodomain, …; assay: blocking of sgp34wt binding to immobilized human IgG, ELISA
Procedure: FIG. 44: IgG blocking ability by anti-gp34mtrp mAbs. vFcγR gp34 is an HCMV encoded IgG-Fc-binding. Anti-gp34mtrp-specific mAbs (in titration) were pre-incubated with recombinant, sgp34wt (constant amount 1 μg/ml) and added to IgG-immobilized ELISA plates. […] Dose-dependent potential of mAbs used for blocking is indicated. Effect by non-specific mouse IgG isotype IgG1 is shown. In addition, binding of sgp34wt to immobilized IgG in absence of any mAb is depicted.
To test if anti-gp34wt specific mAbs can interfere with IgG-binding ability of gp34 and human IgG. Therefore, recombinant, sgp34wt was pre-incubated with indicated anti-gp34wt specific mAbs, mouse IgG isotype or PBS only. Next, antibody bound sgp34wt was incubated on IgG-immobilized ELISA plates.
Anti-gp34wt-specific mAbs (in titration) were pre-incubated with recombinant, sgp34wt (constant amount 1 μg/ml) and added to IgG-immobilized ELISA plates. […] Dose-dependent potential of mAbs used for blocking is indicated. […] In addition, binding of sgp34wt to immobilized IgG in absence of any mAb is depicted.

[5] = target: T3, soluble human ICOSL ectodomain, V5-His tagged (sICOSL-V5His) (human, UniProt O75144 19-256); assay: western blot
T3 construct: extracellular domain; Control protein with the same tags as the vFcγRs
T3 sequence: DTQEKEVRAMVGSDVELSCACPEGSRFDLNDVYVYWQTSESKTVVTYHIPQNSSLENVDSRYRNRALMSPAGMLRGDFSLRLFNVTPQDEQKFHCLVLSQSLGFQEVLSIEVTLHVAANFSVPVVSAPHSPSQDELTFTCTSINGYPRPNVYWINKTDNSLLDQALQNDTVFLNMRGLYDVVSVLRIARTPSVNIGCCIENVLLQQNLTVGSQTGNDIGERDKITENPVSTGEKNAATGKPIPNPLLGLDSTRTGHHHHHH

[6] = target: T4, gp34mtrp (W65F) on stably transduced HeLa cells (HCMV strain AD169, UniProt P16809 24-234); assay: flow cytometry, HeLa
T4 construct: whole, on cells; also called plasma membrane exposed gp34mtrp
T4 sequence: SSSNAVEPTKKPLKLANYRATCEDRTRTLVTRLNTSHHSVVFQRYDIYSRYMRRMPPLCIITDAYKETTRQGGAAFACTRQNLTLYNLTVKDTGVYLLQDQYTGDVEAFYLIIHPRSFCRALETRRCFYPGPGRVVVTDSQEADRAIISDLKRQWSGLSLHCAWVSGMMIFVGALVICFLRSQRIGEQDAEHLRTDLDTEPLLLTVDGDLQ

[7] = target: T5, gp34wt on stably transduced HeLa cells (HCMV strain AD169, UniProt P16809 24-234); assay: flow cytometry, HeLa, 1 µg/ml
T5 construct: whole, on cells; also called plasma membrane exposed gp34wt
T5 sequence: T4 sequence with F42W

gp68_ECD_1 (1-201 aa) = target: T6, gp68_ECD_1 (1-201 aa) (HCMV strain AD169, UniProt P16739 24-201); assay: ELISA, coated supernatant
T6 construct: signal peptide 1-23 left out

gp68_ECD_4a* (1-144aa) = target: T7, gp68_ECD_4a* (1-144aa) (HCMV strain AD169, UniProt P16739 24-144); assay: ELISA, coated supernatant
T7 construct: Shortened by a stop codon that arose in cloning, so a C-terminal tag is doubtful
T7 sequence: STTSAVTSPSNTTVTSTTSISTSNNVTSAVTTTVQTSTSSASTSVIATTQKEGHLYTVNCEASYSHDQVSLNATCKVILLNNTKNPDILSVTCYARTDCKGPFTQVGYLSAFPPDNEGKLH

gp68_ECD_4b (1-152) = gp68_ECD_4b (1-152) (HCMV strain AD169, UniProt P16739 24-152); assay: ELISA, coated supernatant

Row | Binder | binding result [1] | percent blocking of gp34-CRP-binding [2] | percent blocking of gp34 FcRn-binding [3] | IC50 [4] | binding result [5] | binding result [6] | binding result [7] | binding result (gp68_ECD_1 (1-201 aa)) | binding result (gp68_ECD_4a* (1-144aa)) | binding result (gp68_ECD_4b (1-152))
1 | B1 | binds | ~50% | ≤ 50% | 0.152 µg/mL | – | – | – | – | – | –
2 | B2 | binds | ~50% | ≤ 50% | 0.147 µg/mL | – | – | – | – | – | –
3 | B3 | no binding | – | – | 0.063 µg/mL | no binding | no binding (tested: 1 µg/ml) | binds | – | – | –
4 | B4 | no binding | – | – | 0.07 µg/mL | no binding | no binding (tested: 1 µg/ml) | binds | – | – | –
5 | B5 | no binding | – | – | 0.077 µg/mL | no binding | no binding (tested: 1 µg/ml) | binds | – | – | –
6 | B6 | no binding | – | – | 0.089 µg/mL | no binding | no binding (tested: 1 µg/ml) | binds | – | – | –
7 | B7 | binds | ~50% | ≤ 50% | 5.34 µg/mL | – | – | – | – | – | –
8 | B8 | – | – | – | – | no binding | – | – | no binding (tested: 1 µg/ml) | no binding (tested: 1 µg/ml) | no binding (tested: 1 µg/ml)
9 | B9 | binds | ~50% | ≤ 50% | 4.46 µg/mL | – | – | – | – | – | –
10 | B10 | – | – | – | – | no binding | – | – | – | – | –
11 | B11 | – | – | – | – | no binding | – | – | – | – | –
12 | B12 | – | – | – | 0.12 µg/mL | no binding | no binding (tested: 1 µg/ml) | binds | – | – | –
13 | B13 | no binding | – | – | 0.447 µg/mL | no binding | no binding (tested: 1 µg/ml) | – | – | – | –
14 | B14 | no binding | – | – | 0.494 µg/mL | no binding | no binding (tested: 1 µg/ml) | – | – | – | –
